Reference: patent US20040091911, “Recombinant type II restriction endonucleases, MmeI and related endonucleases and methods for producing the same” (published 2004)

T1: MmeI (Methylophilus methylotrophus)
T1 chain: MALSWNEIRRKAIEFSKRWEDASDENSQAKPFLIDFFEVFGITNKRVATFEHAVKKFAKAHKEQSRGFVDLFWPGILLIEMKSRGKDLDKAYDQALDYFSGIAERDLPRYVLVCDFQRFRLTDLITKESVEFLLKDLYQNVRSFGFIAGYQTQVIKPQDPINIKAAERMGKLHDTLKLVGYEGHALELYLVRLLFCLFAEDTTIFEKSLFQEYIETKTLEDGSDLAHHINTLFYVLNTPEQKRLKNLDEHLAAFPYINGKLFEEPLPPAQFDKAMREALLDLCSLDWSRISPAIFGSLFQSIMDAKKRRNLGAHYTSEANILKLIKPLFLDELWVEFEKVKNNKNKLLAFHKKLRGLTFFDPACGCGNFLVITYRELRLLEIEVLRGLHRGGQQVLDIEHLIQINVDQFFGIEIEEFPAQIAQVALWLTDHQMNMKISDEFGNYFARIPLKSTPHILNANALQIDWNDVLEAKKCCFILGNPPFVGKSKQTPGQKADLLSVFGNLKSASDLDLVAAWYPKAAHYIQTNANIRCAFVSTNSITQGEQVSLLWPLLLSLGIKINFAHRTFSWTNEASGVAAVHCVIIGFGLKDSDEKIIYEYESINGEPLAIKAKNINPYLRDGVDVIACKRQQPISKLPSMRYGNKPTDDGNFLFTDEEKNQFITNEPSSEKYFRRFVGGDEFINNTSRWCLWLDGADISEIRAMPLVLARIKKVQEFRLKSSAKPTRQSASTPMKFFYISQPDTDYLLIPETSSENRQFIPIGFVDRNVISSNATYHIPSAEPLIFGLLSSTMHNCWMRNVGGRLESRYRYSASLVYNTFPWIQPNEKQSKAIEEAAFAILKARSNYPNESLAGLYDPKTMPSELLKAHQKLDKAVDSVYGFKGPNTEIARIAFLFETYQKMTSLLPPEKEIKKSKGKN

B1: oligo1+oligo2 unmethylated (dsDNA)
DNA 1: GTTTGAAGACTCCGACGCGATGGCCAGCGATCGGCGCCTCAGCTTTTG
DNA 2: CAAAAGCTGAGGCGCCGATCGCTGGCCATCGCGTCGGAGTCTTCAAAC
B2: oligo1+oligo4 bottom methylated (dsDNA)
DNA 1: GTTTGAAGACTCCGACGCGATGGCCAGCGATCGGCGCCTCAGCTTTTG
DNA 2: CAAAAGCTGAGGCGCCGATCGCTGGCCATCGCGTCGGAGTCTTCAAAC
modifications: 6mA in bottom strand at GTCGG(6mA) (position 38)

Columns and labels:
MmeI [1] = molecular target: T1, MmeI; assay: methyltransferase activity; 3H-SAM incorporation; conditions: preparation used with the oligos not specified; label: 5'-FAM both strands
MmeI [2] = molecular target: T1, MmeI; assay: methyltransferase activity on top strand; 3H-SAM incorporation; conditions: preparation used with the oligos not specified; label: 5'-FAM both strands

Binder	activity (MmeI [1])	activity (MmeI [2])
B1	> 10 fold over background	–
B2	–	> 10 fold over background
